This is an account of results in publication PMC6309729 (Biochemistry, 2011).

The labels stand for the following.
B1: cpFtsY (chloroplast SRP receptor), wildtype (natural protein, UniProt O80842 41-366, looked up)
chain: CSAGPSGFFTRLGRLIKEKAKSDVEKVFSGFSKTRENLAVIDELLLFWNLAETDRVLDELEEALLVSDFGPKITVRIVERLREDIMSGKLKSGSEIKDALKESVLEMLAKKNSKTELQLGFRKPAVIMIVGVNGGGKTTSLGKLAHRLKNEGTKVLMAAGDTFRAAASDQLEIWAERTGCEIVVAEGDKAKAATVLSKAVKRGKEEGYDVVLCDTSGRLHTNYSLMEELIACKKAVGKIVSGAPNEILLVLDGNTGLNMLPQAREFNEVVGITGLILTKLDGSARGGCVVSVVEELGIPVKFIGVGEAVEDLQPFDPEAFVNAIFS

The target of test [1] is T1, cpSRP54 (chloroplast SRP54), wildtype (Arabidopsis thaliana, UniProt P37107 76-564).
T1 sequence (looked up): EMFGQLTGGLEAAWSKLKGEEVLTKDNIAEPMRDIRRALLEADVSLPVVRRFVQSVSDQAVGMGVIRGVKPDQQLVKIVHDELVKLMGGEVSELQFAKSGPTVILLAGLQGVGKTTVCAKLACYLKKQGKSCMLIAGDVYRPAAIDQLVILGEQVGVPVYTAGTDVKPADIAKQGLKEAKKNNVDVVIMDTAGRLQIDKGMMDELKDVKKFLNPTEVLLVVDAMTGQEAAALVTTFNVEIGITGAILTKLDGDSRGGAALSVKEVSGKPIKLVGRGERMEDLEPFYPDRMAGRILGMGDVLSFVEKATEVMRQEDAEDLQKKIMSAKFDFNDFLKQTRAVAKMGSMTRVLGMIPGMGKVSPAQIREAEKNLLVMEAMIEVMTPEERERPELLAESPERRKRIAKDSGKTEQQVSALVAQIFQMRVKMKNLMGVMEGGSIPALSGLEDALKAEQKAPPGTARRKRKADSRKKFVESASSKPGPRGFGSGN
Briefly: cell-based or functional assay.

For test [2], the target named is T1, cpSRP54 (chloroplast SRP54), wildtype. Briefly: GTPase inhibition assay.
The target is the same in test [3]. The experiment in a line: GTPase inhibition assay. This is another data set of the same source.
Test [4] concerns the target B1. Briefly: cell-based or functional assay.
Test [5] deals with B1. Briefly: GTPase inhibition assay.
Test [6] has as its target B1. The experiment in a line: GTPase inhibition assay. The source holds these as a separate data set.

Like-named read-outs stand apart in the source and are kept apart here.

Take B1: the “kcat/Km of the reciprocally stimulated GTPase reaction” value (“kcat/Km” for short) in test [1] stood at 300000 M⁻¹ s⁻¹.

B2: cpFtsY(A169W) (natural protein)
chain: CSAGPSGFFTRLGRLIKEKAKSDVEKVFSGFSKTRENLAVIDELLLFWNLAETDRVLDELEEALLVSDFGPKITVRIVERLREDIMSGKLKSGSEIKDALKESVLEMLAKKNSKTELQLGFRKPAVIMIVGVNGGGKTTSLGKLAHRLKNEGTKVLMAAGDTFRAAWSDQLEIWAERTGCEIVVAEGDKAKAATVLSKAVKRGKEEGYDVVLCDTSGRLHTNYSLMEELIACKKAVGKIVSGAPNEILLVLDGNTGLNMLPQAREFNEVVGITGLILTKLDGSARGGCVVSVVEELGIPVKFIGVGEAVEDLQPFDPEAFVNAIFS
modifications: GTP/GMPPNP-Mg2+ state. Paper numbering + 38 = precursor
Turning to B2, in test [1], the “kcat/Km” value is 467 M⁻¹ s⁻¹. Also, the results for the Ki in test [2] and in test [3] were more than 50 µM and more than 40 µM, respectively.

B3: cpFtsY(A169L) (natural protein)
chain: CSAGPSGFFTRLGRLIKEKAKSDVEKVFSGFSKTRENLAVIDELLLFWNLAETDRVLDELEEALLVSDFGPKITVRIVERLREDIMSGKLKSGSEIKDALKESVLEMLAKKNSKTELQLGFRKPAVIMIVGVNGGGKTTSLGKLAHRLKNEGTKVLMAAGDTFRAALSDQLEIWAERTGCEIVVAEGDKAKAATVLSKAVKRGKEEGYDVVLCDTSGRLHTNYSLMEELIACKKAVGKIVSGAPNEILLVLDGNTGLNMLPQAREFNEVVGITGLILTKLDGSARGGCVVSVVEELGIPVKFIGVGEAVEDLQPFDPEAFVNAIFS
modifications: GTP/GMPPNP-Mg2+ state. Paper numbering + 38 = precursor (motif D163-x-F165-R166-A167-A168-A169), anchored on the named residues
In the case of B3, the “kcat/Km” value in test [1] turned out to be 517 M⁻¹ s⁻¹. The inhibition constant Ki in test [3] is more than 40 µM.

B4: cpSRP54(A143L) (natural protein)
chain: MFGQLTGGLEAAWSKLKGEEVLTKDNIAEPMRDIRRALLEADVSLPVVRRFVQSVSDQAVGMGVIRGVKPDQQLVKIVHDELVKLMGGEVSELQFAKSGPTVILLAGLQGVGKTTVCAKLACYLKKQGKSCMLIAGDVYRPALIDQLVILGEQVGVPVYTAGTDVKPADIAKQGLKEAKKNNVDVVIMDTAGRLQIDKGMMDELKDVKKFLNPTEVLLVVDAMTGQEAAALVTTFNVEIGITGAILTKLDGDSRGGAALSVKEVSGKPIKLVGRGERMEDLEPFYPDRMAGRILGMGDVLSFVEKATEVMRQEDAEDLQKKIMSAKFDFNDFLKQTRAVAKMGSMTRVLGMIPGMGKVSPAQIREAEKNLLVMEAMIEVMTPEERERPELLAESPERRKRIAKDSGKTEQQVSALVAQIFQMRVKMKNLMGVMEGGSIPALSGLEDALKAEQKAPPGTARRKRKADSRKKFVESASSKPGPRGFGSGN
modifications: GTP/GMPPNP-Mg2+ state. Paper numbering + 76 = precursor (Met77 = 1, taken as the NdeI start)
Regarding B4, the “kcat/Km” value in test [4] was found to be 200 M⁻¹ s⁻¹. Also, the Ki in test [5] was more than 40 µM.

B5: cpSRP54(A143W) (natural protein)
chain: MFGQLTGGLEAAWSKLKGEEVLTKDNIAEPMRDIRRALLEADVSLPVVRRFVQSVSDQAVGMGVIRGVKPDQQLVKIVHDELVKLMGGEVSELQFAKSGPTVILLAGLQGVGKTTVCAKLACYLKKQGKSCMLIAGDVYRPAWIDQLVILGEQVGVPVYTAGTDVKPADIAKQGLKEAKKNNVDVVIMDTAGRLQIDKGMMDELKDVKKFLNPTEVLLVVDAMTGQEAAALVTTFNVEIGITGAILTKLDGDSRGGAALSVKEVSGKPIKLVGRGERMEDLEPFYPDRMAGRILGMGDVLSFVEKATEVMRQEDAEDLQKKIMSAKFDFNDFLKQTRAVAKMGSMTRVLGMIPGMGKVSPAQIREAEKNLLVMEAMIEVMTPEERERPELLAESPERRKRIAKDSGKTEQQVSALVAQIFQMRVKMKNLMGVMEGGSIPALSGLEDALKAEQKAPPGTARRKRKADSRKKFVESASSKPGPRGFGSGN
modifications: GTP/GMPPNP-Mg2+ state. Paper numbering + 76 = precursor
For the molecule B5, in test [4], the “kcat/Km” value was 617 M⁻¹ s⁻¹. The Ki in test [6] was more than 50 µM; in test [5], more than 40 µM.

The Ki is the dissociation constant of the complex between target and ligand, obtained from inhibition or displacement.
